Data taken from publication PMC9208311.

Target: zebrafish procaspase-3b (CP-C117S) (zebrafish (Danio rerio))
Test: SEC; Superdex75 Increase 10/300GL, 25 uM protein, 100 ul loaded, dialysed ~16 h at 25°C; citrate buffer pH 5, 6 and 6.5, phosphate buffer pH 7.5 and 8; column standardised with LMW calibration kit

## zebrafish procaspase-3b (CP-C117S) (enzyme)
  stoichiometry N: 2
